Source: publication PMC6854080, “Increased Mosquito Midgut Infection by Dengue Virus Recruitment of Plasmin Is Blocked by an Endogenous Kazal-type Inhibitor” (iScience, 2019)

Biological target: T1, recombinant AaTI (Aedes aegypti Kazal-type serine protease inhibitor) (Aedes aegypti, UniProt Q177W0 23-91)
T1 construct: recombinant protein of 9.85 kDa inclusive of His-tag; also called rAaTI; wild-type rAaTI; source: bacterial system, purified
T1 sequence (looked up): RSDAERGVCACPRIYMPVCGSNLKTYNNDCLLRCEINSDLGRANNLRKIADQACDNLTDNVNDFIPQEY
Assay: BLI; rAaTI-preloaded biosensors immersed into plasmin solutions of different concentrations; association and dissociation curves fitted globally to 1:1 kinetics
Settings: both partners purified

B1: human plasmin (enzyme)
chain 1: KVYLSECKTGNGKNYRGTMSKTKNGITCQKWSSTSPHRPRFSPATHPSEGLEENYCRNPDNDPQGPWCYTTDPEKRYDYCDILECEEECMHCSGENYDGKISKTMSGLECQAWDSQSPHAHGYIPSKFPNKNLKKNYCRNPDRELRPWCFTTDPNKRWELCDIPRCTTPPPSSGPTYQCLKGTGENYRGNVAVTVSGHTCQHWSAQTPHTHNRTPENFPCKNLDENYCRNPDGKRAPWCHTTNSQVRWEYCKIPSCDSSPVSTEQLAPTAPPELTPVVQDCYHGDGQSYRGTSSTTTTGKKCQSWSSMTPHRHQKTPENYPNAGLTMNYCRNPDADKGPWCFTTDPSVRWEYCNLKKCSGTEASVVAPPPVVLLPDVETPSEEDCMFGNGKGYRGKRATTVTGTPCQDWAAQEPHRHSIFTPETNPRAGLEKNYCRNPDGDVGGPWCYTTNPRKLYDYCDVPQCAAPSFDCGKPQVEPKKCPGR
chain 2: VVGGCVAHPHSWPWQVSLRTRFGMHFCGGTLISPEWVLTAAHCLEKSPRPSSYKVILGAHQEVNLEPHVQEIEVSRLFLEPTRKDIALLKLSSPAVITDKVIPACLPSPNYVVADRTECFITGWGETQGTFGAGLLKEAQLPVIENKVCNRYEFLNGRVQSTELCAGHLAGGTDSCQGDSGGPLVCFEKDKYILQGVTSWGLGCARPNKPGVYVRVSRFVTWIEGVMRNN
modifications: active two-chain plasmin (Lys-plasmin limits from the UniProt chain features; the paper prints none), heavy and light chains joined by interchain disulfides; natural glycosylation
For B1, the Kd was 62.8 nM.
